The supplement of paper PMC7877785
± gives the uncertainty stated by the source.

Experiment: self-splicing fitness, log relative to wild type (ln ratio); higher = more splicing; Tetrahymena group I intron in knt gene, E. coli kanamycin selection, DiMSum; sequences stand for … in CUCUCU…GGAGGGAAAAGUUAUCAGGCAUGCACCUGGUAGCUAGUCUUUAAACCAAUAGAUUGCAUCGGUUUAAAAGGCAAGACCGUCAAAUUGCGGGAAAGGGGUCAACAGCCGUUCAGUACCAAGUCUCAGGGGAAACUUUGAGAUGGCCUUGCAAAGGGUAUGGUAAUAAGCUGACGGACAUGGUCCUAACCACGCAGCCAAGUCCUAAGUCAACAGAUCUUCUGUUGAUAUGGAUGCAGUUCACAGACUAAAUGUCGGUCGGGGAAGAUGUAUUCUUCUCAUAAGAUAUAGUCGGACCUCUCCUUAAUGGGAGCUAGCGGAUGAAGUGAUGCAACACUGGAGCCGCUGGGAACUAAUUUGUAUGCGAAAGUAUAUUGAUUAGUUUUGGAGUACUCGUGGUCG
In short: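 Colonies from six replicate transformations of E. coli BL21(DE3) were pooled and amplicon-sequenced on an Illumina HiSeq 2500. The library placed an intron with all eight P1ex-region nucleotides randomised inside the knt kanamycin-resistance gene on pET-22b(+), and cells grew overnight at 37°C or 30°C on LB agar with or without 25 μg/mL kanamycin (plus 100 μg/mL carbenicillin, 50 μM IPTG, 0.2% rhamnose). Fitness is the DiMSum error-weighted combination of wild-type-normalised replicate fold changes, kanamycin versus none.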

| Sequence | self-splicing fitness (ln) (30 °C) | self-splicing fitness (ln) (37 °C) |
| --- | --- | --- |
| GUUAAGCAAUAUUACGUGCG | -0.344 ± 0.12 | -1.15 ± 0.12 |
| CAGGAGCAAUAUUACGCCUC | -2.08 ± 0.23 |  |
| UAAGAGCAAUAUUACGGUCG | -2.81 ± 0.16 | -1.85 ± 0.15 |
| CACGAGCAAUAUUACGAGUC |  | -1.63 ± 0.29 |
| AGCCAGCAAUAUUACGCCGG |  | -3.39 ± 0.27 |
| AAUCAGCAAUAUUACGCCGU | -0.744 ± 0.085 | -0.531 ± 0.099 |
| CUACAGCAAUAUUACGGUAG | -3.39 ± 0.15 | -3.06 ± 0.23 |
| CUGGAGCAAUAUUACGACCG | -0.607 ± 0.082 | 0.106 ± 0.14 |
| AAUAAGCAAUAUUACGAACU | -0.169 ± 0.11 | 0.509 ± 0.14 |
| ACACAGCAAUAUUACGUUUU | -3.42 ± 0.11 | -2.57 ± 0.14 |
| CCUUAGCAAUAUUACGUACU | -2.32 ± 0.23 | -1.99 ± 0.21 |
| UAUAAGCAAUAUUACGGCAA | -0.395 ± 0.17 | -0.0869 ± 0.2 |
| AACCAGCAAUAUUACGUUUG | -2.83 ± 0.077 | -2.31 ± 0.1 |
| CGUCAGCAAUAUUACGUUCA | -1.26 ± 0.082 | -0.74 ± 0.087 |
| GUACAGCAAUAUUACGCUUG | -1.97 ± 0.098 | -1.1 ± 0.12 |
| AACAAGCAAUAUUACGCAGU | -3.43 ± 0.19 | -1.93 ± 0.16 |
| AUCUAGCAAUAUUACGUCUG | -1.72 ± 0.14 | -0.625 ± 0.14 |
| CAUGAGCAAUAUUACGCAUC | -2.04 ± 0.31 | -2.41 ± 0.33 |
| CAUGAGCAAUAUUACGGUAA |  | -2.65 ± 0.34 |
| AACCAGCAAUAUUACGAAAU | -1.08 ± 0.058 | -0.397 ± 0.074 |

| Sequence | self-splicing fitness (ln) (30 °C) | self-splicing fitness (ln) (37 °C) |
| --- | --- | --- |
| UAAAAGCAAUAUUACGCGAU | -3.3 ± 0.17 | -2.51 ± 0.2 |
| UGUGAGCAAUAUUACGCCCG | -0.83 ± 0.47 | -1.17 ± 0.42 |
| GCUUAGCAAUAUUACGAGCG | -2.44 ± 0.26 | -1.1 ± 0.16 |
| UUUUAGCAAUAUUACGGGCA | -1.86 ± 0.39 | -0.575 ± 0.27 |
| ACUAAGCAAUAUUACGUAUC | -2.91 ± 0.15 | -2.15 ± 0.19 |
| CCGGAGCAAUAUUACGUAAA | -3.29 ± 0.25 | -2.09 ± 0.47 |
| AGUCAGCAAUAUUACGUCGA | -0.487 ± 0.1 | -0.568 ± 0.13 |
| UAUGAGCAAUAUUACGUACU | -4.19 ± 0.42 | -1.09 ± 0.41 |
| UCACAGCAAUAUUACGUCGA | -0.572 ± 0.068 | -0.734 ± 0.08 |
| CUGCAGCAAUAUUACGGUCA | -3.07 ± 0.23 | -2.18 ± 0.16 |
| CACGAGCAAUAUUACGUGGC | -4.09 ± 0.37 | -2.13 ± 0.21 |
| AGAAAGCAAUAUUACGAUAC | -1.78 ± 0.14 | -1.54 ± 0.19 |
| GACCAGCAAUAUUACGUAAG | -1.55 ± 0.052 | -0.817 ± 0.076 |
| UAGAAGCAAUAUUACGUGAA | -2.05 ± 0.07 | -1.5 ± 0.092 |
| AUGUAGCAAUAUUACGACGU | -0.432 ± 0.087 | 0.442 ± 0.095 |
| ACUUAGCAAUAUUACGCAUC | -2.69 ± 0.19 | -1.64 ± 0.2 |
| UUUGAGCAAUAUUACGAAGC | -3.58 ± 0.42 | -1.64 ± 0.33 |
| UGGCAGCAAUAUUACGGAGU | -2.61 ± 0.17 | -3.96 ± 0.31 |
| GAACAGCAAUAUUACGGAUC | -0.794 ± 0.06 | -0.441 ± 0.08 |
